Assays:
[1] = target: human dopamine D1 receptor protein (human) (UniProt P21728); assay: cell-based or functional assay
[2] = target: human adenosine A2a receptor protein (human) (UniProt P29274); assay: cell-based or functional assay
Sequence of human adenosine A2a receptor protein (human) (P29274 whole entry): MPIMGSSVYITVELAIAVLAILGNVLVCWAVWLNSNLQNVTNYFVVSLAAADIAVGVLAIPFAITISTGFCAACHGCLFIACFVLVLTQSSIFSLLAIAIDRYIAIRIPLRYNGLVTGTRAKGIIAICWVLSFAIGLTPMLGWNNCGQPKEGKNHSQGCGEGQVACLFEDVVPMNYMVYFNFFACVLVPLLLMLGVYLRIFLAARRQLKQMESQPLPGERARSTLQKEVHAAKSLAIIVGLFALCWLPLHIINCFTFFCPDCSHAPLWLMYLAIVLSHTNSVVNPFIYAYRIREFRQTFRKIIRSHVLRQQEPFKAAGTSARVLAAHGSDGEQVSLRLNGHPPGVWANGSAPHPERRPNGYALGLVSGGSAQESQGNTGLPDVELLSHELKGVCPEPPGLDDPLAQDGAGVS

Sequence of human dopamine D1 receptor protein (human) (P21728 whole entry): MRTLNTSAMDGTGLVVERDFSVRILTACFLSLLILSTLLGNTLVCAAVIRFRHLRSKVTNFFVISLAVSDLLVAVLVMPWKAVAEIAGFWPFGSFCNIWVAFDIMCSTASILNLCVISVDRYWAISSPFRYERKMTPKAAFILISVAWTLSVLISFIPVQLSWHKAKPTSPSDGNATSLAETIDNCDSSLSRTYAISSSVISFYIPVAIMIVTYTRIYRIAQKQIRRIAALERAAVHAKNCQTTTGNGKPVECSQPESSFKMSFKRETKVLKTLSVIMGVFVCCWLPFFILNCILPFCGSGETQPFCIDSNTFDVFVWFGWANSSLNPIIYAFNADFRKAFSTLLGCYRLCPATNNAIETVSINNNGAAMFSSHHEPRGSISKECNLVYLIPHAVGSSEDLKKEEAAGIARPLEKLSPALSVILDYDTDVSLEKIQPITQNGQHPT

human Gm1 protein showed a cAMP level (HitHunter ECF cyclic AMP chemiluminescent assay; CHO cells co-expressing Gm1 and dopamine D1 receptor, 10 µM dopamine; cells expressing only the D1 receptor = 100%, no contact = 0%) [1] of 127% and a cAMP level (HitHunter ECF cyclic AMP chemiluminescent assay; CHO cells co-expressing Gm1 and adenosine A2a receptor, 10 µM adenosine; cells expressing only the A2a receptor = 100%, no contact = 0%) [2] of 134%.

Source: patent publication US20050260595A1
